Assays:
[1] = target: the molecule itself; assay: mass photometry
[2] = target: the molecule itself; assay: SAXS

Protein | stoichiometry N [1] | binding result [2]
CCDC6-RET fusion product (CCDC6 residues 1-101 fused to RET residues 713-1072), wild type, apo (un-phosphorylated) state (enzyme, human, UniProt Q16204 1-101, looked up, activation loop Tyr 900 and c-terminal Ser 1034 showed high levels of phosphorylation in the basal state) MADSASESDTDGAGGNSSSSAAMQSSCSSTSGGGGGGGGGGGGGKSGGIVISPFRLEELTNRLASLQQENKVLKIELETYKLKCKALQEENRDLRKASVTIEDPKWEFPRKNLVLGKTLGEGEFGKVVKATAFHLKGRAGYTTVAVKMLKENASPSELRDLLSEFNVLKQVNHPHVIKLYGACSQDGPLLLIVEYAKYGSLRGFLRESRKVGPGYLGSGGSRNSSSLDHPDERALTMGDLISFAWQISQGMQYLAEMKLVHRDLAARNILVAEGRKMKISDFGLSRDVYEEDSYVKRSQGRIPVKWMAIESLFDHIYTTQSDVWSFGVLLWEIVTLGGNPYPGIPPERLFNLLKTGHRMERPDNCSEEMYRLMLQCWKQEPDKRPVFADISKDLEKMMVKRRDYLDLAASTPSDSLIYDDGLSEEETPLVDCNNAPLPRALPSTWIENKLYGRISHAFTRF | 2 | –
CCDC6-RET lacking the c-terminal segment of RET (CCDC6 1-101 fused to RET aa 713-1013) (enzyme, human, UniProt Q16204 1-101, looked up) MADSASESDTDGAGGNSSSSAAMQSSCSSTSGGGGGGGGGGGGGKSGGIVISPFRLEELTNRLASLQQENKVLKIELETYKLKCKALQEENRDLRKASVTIEDPKWEFPRKNLVLGKTLGEGEFGKVVKATAFHLKGRAGYTTVAVKMLKENASPSELRDLLSEFNVLKQVNHPHVIKLYGACSQDGPLLLIVEYAKYGSLRGFLRESRKVGPGYLGSGGSRNSSSLDHPDERALTMGDLISFAWQISQGMQYLAEMKLVHRDLAARNILVAEGRKMKISDFGLSRDVYEEDSYVKRSQGRIPVKWMAIESLFDHIYTTQSDVWSFGVLLWEIVTLGGNPYPGIPPERLFNLLKTGHRMERPDNCSEEMYRLMLQCWKQEPDKRPVFADISKDLEKMMVKRR | – | binds

Reference: article doi:10.1101/2025.01.14.632894 (bioRxiv, 2025)
